In the nanobody polyreactivity screen of Harvey et al. (2022):

Experiment: yeast display, Sf9 membrane polyspecificity reagent, FACS + sequencing; frameworks hold sequencing errors
Summary of the method: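 Polyreactivity labels are assigned by the sorting gate from which each nanobody was recovered. The gates were low and high (top ~1%), set on anti-HA fluorescence for expression and streptavidin fluorescence for reagent binding. Before sorting, galactose-induced (36–48 hours) yeast display cells were stained for 1 hour at 4 °C with 10% biotinylated, detergent-solubilized Sf9 membrane reagent.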

Sequence | polyreactivity (PSR sort gate)
QVQLVESGGGLVQAGGSLRLSCAASGRTFDYYAMGWFRQAPGKERELVAAISSSGGRTYYADSVKGRFTISRDNAKNTVYLQMNSLKPEDTAVYYCNAVVSRNYEYWGQGTQVTVSS | high polyreactivity
QVQLVESGGGLVQAGGSLRLSCAASGRTFEGNAMGWSRQAPGKERELVAAISGSGGRTYYADSVKGRFTISRDNAKNTVYLQMNSLKPEDTAVYYATLYSVYNPWRFNYWGQGTQVTVSS | high polyreactivity
QVQLVESGGGLVQAGGSLRLSCAASGRTFEGNAMGWYRQSPGKERELVAAIRWRGGRTYYADSVKGRFTISRDNAKNTVYLQLNSLNPEDTAVYYCAAAGLPPPDNDYWGQGTQVTVSS | low polyreactivity
QVQLVESGGGLVQAGGSLRLSCAASGRTFEIYAIGWYSKAPGKERELVAAISSGGSTYYADSVKGRFTISRDNAKNTVYLQMNSLKPEDTAVYYCAVRWYDQVSRRGIGYYWGQGTQVTVSS | low polyreactivity
QVQLVESGGGLVQAGGSLRLSCAASGRTFEKYVMGWYRQAPGKERELVASISKRGGSTYYADSVKGRFTISRDNAKNTVYLQMNSLKPEDTAVYYCNKDSRASPYGYWGQGTQVTVSS | high polyreactivity
QVQLVESGGGLVQAGGSLRLSCAASGRTFEPNAMGWYRQAPGKEREFVAAISWDGGDTYYADSVKGRFTISRDNAKNTVYLQMNSLKPEDTAVYYCAKSTLYSVEYDYWGQGTQVTVSS | low polyreactivity
QVQLVESGGGLVQAGGSLRLSCAASGRTFEQYAMGWSRQAPGKERELVAAISGSGGSTFYADSVKGRFTISRDNAKNTVYLQMNSLKPEDTAVYYCNAPGDGYLYDHTYDYWGQGTQVTVSS | low polyreactivity
QVQLVESGGGLVQAGGSLRLSCAASGRTFERYALGWYRQAPGKERELVAAIDFSGGSTSYADSVKGRFTISRDNAKNTVYLQMNSLKPEDTAVYYCAARETAHGGKEDDYWGQGTQVTVSS | low polyreactivity
QVQLVESGGGLVQAGGSLRLSCAASGRTFERYAMGWYRQAPGKERELVATITRRGGSTYYADSVKGRFTISRDNAKNTVYLQMNSLKPEDTAVYYCNADNQAYRIYARGYWGQGTQVTVSS | high polyreactivity
QVQLVESGGGLVQAGGSLRLSCAASGRTFESNAMGWYRQAPGKERELVAAISYGGGTTHYADSVKGRFTISRDNAKNTVYLQMNSLKPEDTAVYYCAADPEHQWESVTIGEYDYWGQGTQVTVSS | low polyreactivity
QVQLVESGGGLVQAGGSLRLSCAASGRTFESNAMGWYRQAPGKERELVAGITSGGITNYADSVKGRFTISRDNAKNTVYLQMISLKPEDTAVYYCEFYYWGQGTQVTVSS | low polyreactivity
QVQLVESGGGLVQAGGSLRLSCAASGRTFESNAMGWYRQAPGKERELVAGITSGGITNYADSVKGRFTISRDNAKNTVYLQMNSLKPEDTAVYYCEFYYWGQGTQVTVSS | low polyreactivity
QVQLVESGGGLVQAGGSLRLSCAASGRTFESNAMGWYRQAPGKERELVASITDGGSTNYADSVKGRFTISRDNAKNTVYLQMNSLKPEDSAVYYCNVTKRGSLWSVPDQTYDYWGQGTQVTVSS | low polyreactivity
QVQLVESGGGLVQAGGSLRLSCAASGRTFESYAMGWYRQAPGTERELVAAITWSGGDTYYADSVKGRFTISRDNAKNTVYLQMNSLKPEETAVYYCAKEQGLYSVSPYDYWGQGTQVTVSS | low polyreactivity
QVQLVESGGGLVQAGGSLRLSCAASGRTFEYYAMGWYRQAPGKERDLVAAISTSGGSTYYADSVKGRFTISRDNAKNTVYLQMNSLKPEDTAVYYCNKVQSTANDYWGQGTQVTVSS | low polyreactivity
QVQLVESGGGLVQAGGSLRLSCAASGRTFFGNAMGWYRQAPGKERELVAVISQGGGSTYYADSVKGRFTISRDNAKNTVYLQMNSLKPEDTAVYYCAKRYPHVGSGQLGGTYNYWGQGTQVTVSS | low polyreactivity
QVQLVESGGGLVQAGGSLRLSCAASGRTFFGYAMGWYIQAPGKERELVAAITWNGGRTYYADSVRGRFTISRDNAKNTVYLQMNSLKPEDTAVYYCAARVGDGVRRYNYWGQGTQVTVSS | high polyreactivity
QVQLVESGGGLVQAGGSLRLSCAASGRTFFGYAMGWYRQAPGKERELVAAISGGGRTNYADSVKGRFTISRDNAKNTVYLQMNSLKPEDTAVYYCAARLVKYFRPYDYWGQGTQVTVSS | high polyreactivity
QVQLVESGGGLVQAGGSLRLSCAASGRTFFGYAMGWYRQAPGKERELVAAISSGGSTYYADSVKGRFTISRDNAKNTVYLQMYSLKPEDTAVYYCATAFYYYTSGTTLLFRYDYWGQGTQVTVSS | low polyreactivity
QVQLVESGGGLVQAGGSLRLSCAASGRTFFKIAMGWYRQAPGKERELVASISSRSGTTYYADSVKGRFTISRDNAKNTVYLQMNSLKPEDTAVYYCAASRNRYSYGYWGQGTQVTVSS | high polyreactivity
QVQLVESGGGLVQAGGSLRLSCAASGRTFFKNAMGWYRQAPGKERELVASISSRSGTTYYADSVKGRFTISRDNAKNTVYLQMNSLKPEDTAVYYCAADIYWWRGSTHGMDYWGQGTQVTVSS | high polyreactivity
QVQLVESGGGLVQAGGSLRLSCAASGRTFFKYAMGWYRQAPGKERELVAAITGRGGSTYADSVKGRFTISRDNAKNTVYLQMNSLKPEDTAVYYCAKVYQRGAQYYYYKYDYWGQGTQVTVSS | high polyreactivity
QVQLVESGGGLVQAGGSLRLSCAASGRTFFKYAMGWYRQEPGKERELVASISRTGGGSTYYADSVKGRFTISRDNAKNTVYLQMNSLQPEDTAVYYCNKYTYRGRTGEFNYWGQGTQVNVSS | high polyreactivity
QVQLVESGGGLVQAGGSLRLSCAASGRTFFLYAMGWYRQAPGKEREFVATISYGGGSTYYADSVKGRFTISRDNAKNTVYLQMNSLKPDDTAVYYCNALNTSQYAEGTSDYDGNMGYWGQGTQVTVSS | low polyreactivity
QVQLVESGGGLVQAGGSLRLSCAASGRTFFLYTIGWYRQAPGKEREFVAAITTIGGSTYYADSVKGRFTISRDNAKNTVSLQMHSLKPEDTAVYYCNARVGPELHDYWGQGTQVTVSS | low polyreactivity
QVQLVESGGGLVQAGGSLRLSCAASGRTFFNYAMGWYRQAPGKERELVAAISFSDGSTYYADSVKGRFTISRDNAKNTVYLQMNSLKPEDTADYYCAAQPGRRAGRSGFDYWGQGTQVTVSS | high polyreactivity
QVQLVESGGGLVQAGGSLRLSCAASGRTFFPNAMGWYRQAPGKERELVAAISSGGGGTYYADSVKGRFTISRDNAKNTVYLQMISLKPEDTAVYYCAARNSKVEEEGNYWGQGTQVTVSS | low polyreactivity
QVQLVESGGGLVQAGGSLRLSCAASGRTFFPYAMGWYRQAPGKEREFVAAITKTDDSTYYADSVKGRFTISRDNAKNTVYLQMNSLKPEDTAVYYCAADTSRSVSVFIVWYWLGYWGQGTQVTVSS | low polyreactivity
QVQLVESGGGLVQAGGSLRLSCAASGRTFFPYAMGWYRQAPGKEREFVAAITKTDDTTYYADSVKGRFTISRDNAKNTVYLQMNSLKPEDTAVYYCNAGDTQIRFYYWGQGTQVNVSS | low polyreactivity
QVQLVESGGGLVQAGGSLRLSCAASGRTFFQYAMGWYRQAPGKERELVAAIRWSDSTYYADSVKGRFTISRDNAKNTVYLQMNSLKPEDTAVYYCAAPRVSQYSTKKYDYWGQGTQVTVSS | low polyreactivity
